# Assay results as given in article PMC9261887.
# Target: Human angiotensin-converting enzyme 2 ectodomain (amino acids 20-613) with C-terminal E5 coil tag, p (human) (UniProt Q9BYF1)
# Test: SPR
# Chain of Human angiotensin-converting enzyme 2 ectodomain (amino acids 20-613) with C-terminal E5 coil tag, p (human) (Q9BYF1 20-613): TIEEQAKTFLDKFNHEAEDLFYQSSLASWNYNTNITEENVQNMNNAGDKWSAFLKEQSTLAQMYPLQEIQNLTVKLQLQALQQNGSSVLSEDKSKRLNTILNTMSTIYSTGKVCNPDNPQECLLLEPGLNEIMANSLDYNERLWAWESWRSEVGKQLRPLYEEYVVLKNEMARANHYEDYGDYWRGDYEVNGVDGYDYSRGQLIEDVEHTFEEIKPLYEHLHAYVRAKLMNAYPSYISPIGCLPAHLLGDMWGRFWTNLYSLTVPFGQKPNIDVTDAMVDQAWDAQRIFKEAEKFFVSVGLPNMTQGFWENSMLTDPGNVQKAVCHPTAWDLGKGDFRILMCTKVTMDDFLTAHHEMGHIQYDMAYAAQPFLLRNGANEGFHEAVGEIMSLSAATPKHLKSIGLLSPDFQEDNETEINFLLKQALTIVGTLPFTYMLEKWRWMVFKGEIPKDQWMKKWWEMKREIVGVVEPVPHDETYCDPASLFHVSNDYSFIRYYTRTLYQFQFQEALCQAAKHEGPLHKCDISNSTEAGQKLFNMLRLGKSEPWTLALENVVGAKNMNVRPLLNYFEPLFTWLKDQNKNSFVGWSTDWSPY
row,Substance,dH [kcal/mol]
1,"SARS-CoV-2 spike protein receptor binding domain (RBD 319-541), Kappa B.1.617.1 (from UniProt P0DTC2 319-541) (domain or fragment)",-9.56
2,"SARS-CoV-2 spike protein receptor binding domain (RBD 319-541), Alpha B.1.1.7 (from UniProt P0DTC2 319-541) (domain or fragment)",-17.4
3,"SARS-CoV-2 spike protein receptor binding domain (RBD 319-541), Beta B.1.351 (from UniProt P0DTC2 319-541) (domain or fragment)",-15.3
4,"SARS-CoV-2 spike protein receptor binding domain (RBD 319-541), Delta B.1.617.2 (from UniProt P0DTC2 319-541) (domain or fragment)",-10.9
5,"SARS-CoV-2 spike protein receptor binding domain (RBD 319-541), Omicron B.1.1.529 (from UniProt P0DTC2 319-541) (domain or fragment)",-17
